# Target: the molecule itself
# Assay: cryo-EM structure
protein,measurement,value
"human sodium-proton exchanger 3 (NHE3/SLC9A3) (natural protein, UniProt P48764 26-834, looked up) GGVEVEPGGAHGESGGFQVVTFEWAHVQDPYVIALWILVASLAKIGFHLSHKVTSVVPESALLIVLGLVLGGIVWAADHIASFTLTPTVFFFYLLPPIVLDAGYFMPNRLFFGNLGTILLYAVVGTVWNAATTGLSLYGVFLSGLMGDLQIGLLDFLLFGSLMAAVDPVAVLAVFEEVHVNEVLFIIVFGESLLNDAVTVVLYNVFESFVALGGDNVTGVDCVKGIVSFFVVSLGGTLVGVVFAFLLSLVTRFTKHVRIIEPGFVFIISYLSYLTSEMLSLSAILAITFCGICCQKYVKANISEQSATTVRYTMKMLASSAETIIFMFLGISAVNPFIWTWNTAFVLLTLVFISVYRAIGVVLQTWLLNRYRMVQLEPIDQVVLSYGGLRGAVAFALVVLLDGDKVKEKNLFVSTTIIVVFFTVIFQGLTIKPLVQWLKVKRSEHREPRLNEKLHGRAFDHILSAIEDISGQIGHNYLRDKWSHFDRKFLSRVLMRRSAQKSRDRILNVFHELNLKDAISYVAEGERRGSLAFIRSPSTDNVVNVDFTPRSSTVEASVSYLLRENVSAVCLDMQSLEQRRRSIRDAEDMVTHHTLQQYLYKPRQEYKHLYSRHELTPTEDEKQDREIFHRTMRKRLESFKSTKLGLNQNKKAAKLYKRERAQKRRNSSIPNGKLPMESPAQNFTIKEKDLELSDTEEPPNYDEEMSGGIEFLASVTKDTASDSPAGIDNPVFSPDEALDRSLLARLPPWLSPGETVVPSQRARTQIPYSPGTFCRLMPFRLSSKSVDSFLQADGPEERPPAALPESTHM",stoichiometry N,2

# — article PMC9132474 (Science Advances, 2022)
